How the values were obtained:
[1] = molecular target: Rhesus-monkey IgG (Rhesus-monkey serum); test: SPR (BIAcore T100), mAb captured by anti-mouse Fc, serum 1:100; signal at 80 s
[2] = molecular target: baboon IgG (baboon serum); test: as above
[3] = molecular target: chimpanzee immunoglobulin of class G (chimpanzee serum); test: as above
[4] = molecular target: cynomolgus IgG (cynomolgus serum); test: as above
[5] = molecular target: dog IgG (dog serum); test: as above
[6] = molecular target: human immunoglobulin of class G (human serum); test: as above
[7] = molecular target: marmoset IgG (marmoset serum); test: as above
[8] = molecular target: antibody against the IL-1R receptor (anti-IL1R antibody); test: sandwich ELISA, Bi- and Dig-M-R10Z8E9 as capture and detection; analyte 1.56 ng/ml in cynomolgus serum
[9] = molecular target: antibody against the IL-6 receptor (anti-IL6R antibody); test: as above
[10] = molecular target: antibody against the IL13 receptor α1 protein (anti-IL13Rα1 antibody); test: as above
[11] = molecular target: antibody against the amyloid β-A4 peptide (anti-Aβ antibody); test: as above
[12] = molecular target: antibody against the IL-1R receptor (anti-IL1R antibody); test: sandwich ELISA, Bi- and Dig-M-R10Z8E9 as capture and detection; analyte 3.13 ng/ml in cynomolgus serum
[13] = molecular target: antibody against the IL-6 receptor (anti-IL6R antibody); test: as above
[14] = molecular target: antibody against the IL13 receptor α1 protein (anti-IL13Rα1 antibody); test: as above
[15] = molecular target: antibody against the amyloid β-A4 peptide (anti-Aβ antibody); test: as above
[16] = molecular target: antibody against the IL-1R receptor (anti-IL1R antibody); test: sandwich ELISA, Bi- and Dig-M-R10Z8E9 as capture and detection; analyte 6.25 ng/ml in cynomolgus serum
[17] = molecular target: antibody against the IL-6 receptor (anti-IL6R antibody); test: as above
[18] = molecular target: antibody against the IL13 receptor α1 protein (anti-IL13Rα1 antibody); test: as above
[19] = molecular target: antibody against the amyloid β-A4 peptide (anti-Aβ antibody); test: as above
[20] = molecular target: antibody against the IL-1R receptor (anti-IL1R antibody); test: sandwich ELISA, Bi- and Dig-M-R10Z8E9 as capture and detection; analyte 12.50 ng/ml in cynomolgus serum
[21] = molecular target: antibody against the IL-6 receptor (anti-IL6R antibody); test: as above
[22] = molecular target: antibody against the IL13 receptor α1 protein (anti-IL13Rα1 antibody); test: as above
[23] = molecular target: antibody against the amyloid β-A4 peptide (anti-Aβ antibody); test: as above
[24] = molecular target: antibody against the IL-1R receptor (anti-IL1R antibody); test: sandwich ELISA, Bi- and Dig-M-R10Z8E9 as capture and detection; analyte 25.00 ng/ml in cynomolgus serum
[25] = molecular target: antibody against the IL-6 receptor (anti-IL6R antibody); test: as above
[26] = molecular target: antibody against the IL13 receptor α1 protein (anti-IL13Rα1 antibody); test: as above
[27] = molecular target: antibody against the amyloid β-A4 peptide (anti-Aβ antibody); test: as above
[28] = molecular target: antibody against the IL-1R receptor (anti-IL1R antibody); test: sandwich ELISA, Bi- and Dig-M-R10Z8E9 as capture and detection; analyte 50.00 ng/ml in cynomolgus serum
[29] = molecular target: antibody against the IL-6 receptor (anti-IL6R antibody); test: as above
[30] = molecular target: antibody against the IL13 receptor α1 protein (anti-IL13Rα1 antibody); test: as above
[31] = molecular target: antibody against the amyloid β-A4 peptide (anti-Aβ antibody); test: as above
[32] = molecular target: chimpanzee immunoglobulin of class G (chimpanzee serum); test: SPR (BIAcore T100), mAb captured by anti-mouse Fc, serum 1:100; 1:1 Langmuir, serum IgG assumed 15 mg/ml
[33] = molecular target: dog IgG (dog serum); test: as above
[34] = molecular target: human immunoglobulin of class G (human serum); test: as above
[35] = molecular target: marmoset IgG (marmoset serum); test: as above
[36] = molecular target: antibody against the IL-1R receptor (anti-IL1R antibody); test: sandwich ELISA, Bi- and Dig-M-R10Z8E9 as capture and detection; analyte 100.00 ng/ml in cynomolgus serum
[37] = molecular target: antibody against the IL-6 receptor (anti-IL6R antibody); test: as above
[38] = molecular target: antibody against the IL13 receptor α1 protein (anti-IL13Rα1 antibody); test: as above
[39] = molecular target: antibody against the amyloid β-A4 peptide (anti-Aβ antibody); test: as above
[40] = molecular target: antibody against the IL-1R receptor (anti-IL1R antibody); test: sandwich ELISA, Bi- and Dig-M-R10Z8E9 as capture and detection; 0.00 ng/ml analyte in cynomolgus serum (blank)
[41] = molecular target: antibody against the IL-6 receptor (anti-IL6R antibody); test: as above
[42] = molecular target: antibody against the IL13 receptor α1 protein (anti-IL13Rα1 antibody); test: as above
[43] = molecular target: antibody against the amyloid β-A4 peptide (anti-Aβ antibody); test: as above

Bound RU [1]: -1.9 RU | Bound RU [2]: -1.5 RU | Bound RU [3]: 159 RU | Bound RU [4]: -1.4 RU | Bound RU [5]: 35.5 RU | Bound RU [6]: 151 RU | Bound RU [7]: 18.9 RU | OD [8]: 0.085 OD | OD [9]: 0.105 OD | OD [10]: 0.119 OD | OD [11]: 0.139 OD | OD [12]: 0.153 OD | OD [13]: 0.19 OD | OD [14]: 0.226 OD | OD [15]: 0.264 OD | OD [16]: 0.276 OD | OD [17]: 0.348 OD | OD [18]: 0.408 OD | OD [19]: 0.482 OD | OD [20]: 0.546 OD | OD [21]: 0.664 OD | OD [22]: 0.772 OD | OD [23]: 0.881 OD | OD [24]: 0.98 OD | OD [25]: 1.08 OD | OD [26]: 1.23 OD | OD [27]: 1.31 OD | OD [28]: 1.52 OD | OD [29]: 1.56 OD | OD [30]: 1.67 OD | OD [31]: 1.71 OD | Kd [32]: 0.221 nM | Kd [33]: 31.7 nM | Kd [34]: 0.177 nM | Kd [35]: 204 nM | OD [36]: 1.88 OD | OD [37]: 1.82 OD | OD [38]: 1.97 OD | OD [39]: 1.93 OD | OD [40]: 0.024 OD | OD [41]: 0.024 OD | OD [42]: 0.022 OD | OD [43]: 0.023 OD
Substance: MAB<h-Fc gamma>M-R10Z8E9 (antibody)

— patent US20120208216A1
